Source: patent US9587033

Key:
Grb2 = Grb2 (UniProt P62993)

## 60 kDa truncated Tnk1-C17ORF61 fusion protein (tTnk1)
Grb2
  in vitro PTK activity assay (Y-phosphorylation of Grb2): The t-Tnk1 showed none or weak Y-phosphorylation of Grb2

B1: full length Tnk1 (72 kDa) (protein)
chain: MLPEAGSLWLLKLLRDIQLAQFYWPILEELNVTRPEHFDFVKPEDLDGIGMGRPAQRRLSEALKRLRSGPKSKNWVYKILGGFAPEHKEPTLPSDSPRHLPEPEGGLKCLIPEGAVCRGELLGSGCFGVVHRGLWTLPSGKSVPVAVKSLRVGPEGPMGTELGDFLREVSVMMNLEHPHVLRLHGLVLGQPLQMVMELAPLGSLHARLTAPAPTPPLLVALLCLFLRQLAGAMAYLGARGLVHRDLATRNLLLASPRTIKVADFGLVRPLGGARGRYVMGGPRPIPYAWCAPESLRHGAFSSASDVWMFGVTLWEMFSGGEEPWAGVPPYLILQRLEDRARLPRPPLCSRALYSLALRCWAPHPADRPSFSHLEGLLQEAGPSEACCVRDVTEPGALRMETGDPITVIEGSSSFHSPDSTIWKGQNGRTFKVGSFPASAVTLADAGGLPATRPVHRGTPARGDQHPGSIDGDRKKANLWDAPPARGQRRNMPLERMKGISRSLESVLSLGPRPTGGGSSPPEIRQARAVPQGPPGLPPRPPLSSSSPQPSQPSRERLPWPKRKPPHNHPMGMPGARKAAALSGGLLSDPELQRKIMEVELSVHGVTHQECQTALGATGGDVVSAIRNLKVDQLFHLSSRSRADCWRILEHYQWDLSAASRYVLARP
Grb2, P62993
Sequence of Grb2, P62993 (P62993 whole entry, looked up): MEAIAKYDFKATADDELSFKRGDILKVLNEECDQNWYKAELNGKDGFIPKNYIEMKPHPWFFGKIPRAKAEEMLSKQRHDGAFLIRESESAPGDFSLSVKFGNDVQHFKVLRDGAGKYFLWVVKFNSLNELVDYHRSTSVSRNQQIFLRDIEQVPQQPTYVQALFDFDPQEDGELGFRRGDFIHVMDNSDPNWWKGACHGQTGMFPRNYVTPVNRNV
  in vitro PTK activity assay (Y-phosphorylation of Grb2): Tnk1 from T47D or K562 Y-phosphorylated Grb2
